Experimental data taken from publication PMC7266957.

Assays:
[1] = test system: Type I-Fv Cascade (Cas5fv, His-Cas7fv, Cas6f, crRNA spacer4) (Shewanella putrefaciens CN-32); assay: BLI; conditions: BLI buffer: SEC buffer (composition in Supplementary Table II, not in material) + 0.1 uM BSA + 0.01% Triton X-100, 100 nM biotinylated oligonucleotide loaded …
[2] = test system: Type I-F Cascade (Cas8f, Cas5f, His-Cas7f, Cas6f, crRNA) (Shewanella baltica OS195); assay: BLI

CGCCGGTTATAGGTTTGCGCGTCTTGCTGGGCGATAGGACGTGGGATATCTTTTTGATATCCCACGTCCTATCGCCCAGCAAGACGCGCAAACCTATAACCGGCG (double strand) [Complementary (GG PAM)]
Kd [1]: 46.5 nM
Kd ([2]; BLI buffer: SEC buffer (composition in Supplementary Table II, not in material) + 0.1 uM BSA + 0.01% Triton X-100, 100 nM biotinylated oligonucleotide loaded …): 99.6 nM
binding signal ([2]; BLI buffer: SEC buffer (composition in Supplementary Table II, not in material) + 0.1 uM BSA + 0.01% Triton X-100, 100 nM biotinylated oligonucleotide loaded …, scale: fold reduction of equilibrium binding level): 5
